The text below walks through data of article PMC12442371.

The experiment has as its target IbcK (isobutylene catabolism gene K product), epoxide hydrolase from Mycolicibacterium sp. ELW1 (Mycolicibacterium sp. ELW1). Kind of experiment: SEC; Biosep-SEC S3000 column on UPLC, 10 mM Tris-HCl pH 7, 150 mM NaCl, 0.3 mL/min, 10 µL injected; two peaks, dimer to monomers. On the technique in general: In gel filtration, larger molecules generally elute earlier.

On to “IbcK (isobutylene catabolism gene K product), epoxide hydrolase from Mycolicibacterium sp. ELW1 (enzyme)”, for which the stoichiometry N (usually the number of molecules, sites or subunits per partner or assembly) was determined as 2.
